Laboratory results as given in the supplement of paper PMC10219994.
± gives the standard deviation of the averaged measurements.

B1: library; a variant is named by its letters at N, in order (parent)
chain: GAGACCGCAACTGAAAAGTTGTGGNNNNNATAGTGAGTCGCTGCCTGCAAAGACACAACT

Variants of: B1
Assay: ligation selection enrichment (abundance after / before one-round selection) (fold); higher = more template-directed ligation activity
Conditions: with T7Psub CACGGAUGCUAAUACGACUCACUAUA; MgCl2 25 mM; 42 °C; 4 h; pH 8.5
Outline: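 In each of two independent experiments, 6 μM RNA substrate was reacted for 4 h at 42 °C with 0.75 μM of a T7-transcribed RNA ligase library randomized at five core positions, in buffer containing 50 mM EPPS pH 8.5 and 25 mM MgCl2. Only reads scoring ≥30 in quality at all randomized positions were counted after MiSeq sequencing. Each enrichment value is the ratio of abundance after ligation to abundance before ligation.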
GAGACCGCAACTGAAAAGTTGTGGTGACTATAGTGAGTCGCTGCCTGCAAAGACACAACT [TGACT] was tested, and the ligation selection enrichment was 0.683 ± 0.3. In the case of GAGACCGCAACTGAAAAGTTGTGGTGACCATAGTGAGTCGCTGCCTGCAAAGACACAACT [TGACC], the ligation selection enrichment is reported as 0.183 ± 0.0057. With GAGACCGCAACTGAAAAGTTGTGGTGACAATAGTGAGTCGCTGCCTGCAAAGACACAACT [TGACA] the ligation selection enrichment was 0.19 ± 0.052. GAGACCGCAACTGAAAAGTTGTGGGGACAATAGTGAGTCGCTGCCTGCAAAGACACAACT [GGACA] was tested, and the ligation selection enrichment was 0.256 ± 0.046. Work on GAGACCGCAACTGAAAAGTTGTGGGGACGATAGTGAGTCGCTGCCTGCAAAGACACAACT [GGACG] yielded a ligation selection enrichment of 0.725 ± 0.049. GAGACCGCAACTGAAAAGTTGTGGGGACTATAGTGAGTCGCTGCCTGCAAAGACACAACT [GGACT] was tested, and the ligation selection enrichment was 0.703 ± 0.31. GAGACCGCAACTGAAAAGTTGTGGGGACCATAGTGAGTCGCTGCCTGCAAAGACACAACT [GGACC] showed a ligation selection enrichment of 0.232 ± 0.06. Work on GAGACCGCAACTGAAAAGTTGTGGGGAGCATAGTGAGTCGCTGCCTGCAAAGACACAACT [GGAGC] yielded a ligation selection enrichment of 0.135 ± 0.022. In the case of GAGACCGCAACTGAAAAGTTGTGGGGAGGATAGTGAGTCGCTGCCTGCAAAGACACAACT [GGAGG], the ligation selection enrichment is reported as 0.371 ± 0.084. GAGACCGCAACTGAAAAGTTGTGGGGAGAATAGTGAGTCGCTGCCTGCAAAGACACAACT [GGAGA] showed a ligation selection enrichment of 0.285 ± 0.02. GAGACCGCAACTGAAAAGTTGTGGGGAGTATAGTGAGTCGCTGCCTGCAAAGACACAACT [GGAGT] showed a ligation selection enrichment of 0.165 ± 0.0095. GAGACCGCAACTGAAAAGTTGTGGCGAGCATAGTGAGTCGCTGCCTGCAAAGACACAACT [CGAGC] was tested, and the ligation selection enrichment was 0.246 ± 0.036. With GAGACCGCAACTGAAAAGTTGTGGCGAGTATAGTGAGTCGCTGCCTGCAAAGACACAACT [CGAGT] the ligation selection enrichment was 1.09 ± 0.25. Variant GAGACCGCAACTGAAAAGTTGTGGCGAGAATAGTGAGTCGCTGCCTGCAAAGACACAACT [CGAGA] has a ligation selection enrichment of 0.348 ± 0.084. GAGACCGCAACTGAAAAGTTGTGGCGAGGATAGTGAGTCGCTGCCTGCAAAGACACAACT [CGAGG] showed a ligation selection enrichment of 0.422 ± 0.029. For GAGACCGCAACTGAAAAGTTGTGGCGACCATAGTGAGTCGCTGCCTGCAAAGACACAACT [CGACC], the ligation selection enrichment was 0.239 ± 0.071. In the case of GAGACCGCAACTGAAAAGTTGTGGCGACTATAGTGAGTCGCTGCCTGCAAAGACACAACT [CGACT], the ligation selection enrichment is reported as 1.09 ± 0.25. Work on GAGACCGCAACTGAAAAGTTGTGGCGACAATAGTGAGTCGCTGCCTGCAAAGACACAACT [CGACA] yielded a ligation selection enrichment of 0.411 ± 0.093. GAGACCGCAACTGAAAAGTTGTGGCGACGATAGTGAGTCGCTGCCTGCAAAGACACAACT [CGACG] showed a ligation selection enrichment of 0.671 ± 0.15. GAGACCGCAACTGAAAAGTTGTGGGGATTATAGTGAGTCGCTGCCTGCAAAGACACAACT [GGATT] gave a ligation selection enrichment of 1.31 ± 0.31. Work on GAGACCGCAACTGAAAAGTTGTGGGGATGATAGTGAGTCGCTGCCTGCAAAGACACAACT [GGATG] yielded a ligation selection enrichment of 0.732 ± 0.14. With GAGACCGCAACTGAAAAGTTGTGGGGATAATAGTGAGTCGCTGCCTGCAAAGACACAACT [GGATA] the ligation selection enrichment was 0.432 ± 0.027. GAGACCGCAACTGAAAAGTTGTGGGGATCATAGTGAGTCGCTGCCTGCAAAGACACAACT [GGATC] showed a ligation selection enrichment of 0.188 ± 0.03. For GAGACCGCAACTGAAAAGTTGTGGAGCGAATAGTGAGTCGCTGCCTGCAAAGACACAACT [AGCGA], the ligation selection enrichment was 2.74 ± 0.25. For GAGACCGCAACTGAAAAGTTGTGGAGCGCATAGTGAGTCGCTGCCTGCAAAGACACAACT [AGCGC], the ligation selection enrichment was 0.269 ± 0.043. GAGACCGCAACTGAAAAGTTGTGGGGAATATAGTGAGTCGCTGCCTGCAAAGACACAACT [GGAAT] showed a ligation selection enrichment of 2.23 ± 0.17. In the case of GAGACCGCAACTGAAAAGTTGTGGCGATCATAGTGAGTCGCTGCCTGCAAAGACACAACT [CGATC], the ligation selection enrichment is reported as 0.294 ± 0.018. In the case of GAGACCGCAACTGAAAAGTTGTGGCGATTATAGTGAGTCGCTGCCTGCAAAGACACAACT [CGATT], the ligation selection enrichment is reported as 4.38 ± 0.59. GAGACCGCAACTGAAAAGTTGTGGCGATGATAGTGAGTCGCTGCCTGCAAAGACACAACT [CGATG] gave a ligation selection enrichment of 1.3 ± 0.22. For GAGACCGCAACTGAAAAGTTGTGGCGATAATAGTGAGTCGCTGCCTGCAAAGACACAACT [CGATA], the ligation selection enrichment was 1.05 ± 0.21. For GAGACCGCAACTGAAAAGTTGTGGGGCGAATAGTGAGTCGCTGCCTGCAAAGACACAACT [GGCGA], the ligation selection enrichment was 1.52 ± 0.26. Variant GAGACCGCAACTGAAAAGTTGTGGGGCGCATAGTGAGTCGCTGCCTGCAAAGACACAACT [GGCGC] has a ligation selection enrichment of 0.2927 ± 0.0028. For GAGACCGCAACTGAAAAGTTGTGGAGATAATAGTGAGTCGCTGCCTGCAAAGACACAACT [AGATA], the ligation selection enrichment was 0.533 ± 0.16. For GAGACCGCAACTGAAAAGTTGTGGAGATCATAGTGAGTCGCTGCCTGCAAAGACACAACT [AGATC], the ligation selection enrichment was 0.204 ± 0.0068. Variant GAGACCGCAACTGAAAAGTTGTGGAGATTATAGTGAGTCGCTGCCTGCAAAGACACAACT [AGATT] has a ligation selection enrichment of 1.66 ± 0.48. GAGACCGCAACTGAAAAGTTGTGGAGATGATAGTGAGTCGCTGCCTGCAAAGACACAACT [AGATG] gave a ligation selection enrichment of 0.602 ± 0.065. For GAGACCGCAACTGAAAAGTTGTGGCGAATATAGTGAGTCGCTGCCTGCAAAGACACAACT [CGAAT], the ligation selection enrichment was 2.11 ± 0.22. Variant GAGACCGCAACTGAAAAGTTGTGGTGCAGATAGTGAGTCGCTGCCTGCAAAGACACAACT [TGCAG] has a ligation selection enrichment of 0.216 ± 0.0033. For GAGACCGCAACTGAAAAGTTGTGGTGCAAATAGTGAGTCGCTGCCTGCAAAGACACAACT [TGCAA], the ligation selection enrichment was 0.289 ± 0.065. With GAGACCGCAACTGAAAAGTTGTGGTGCACATAGTGAGTCGCTGCCTGCAAAGACACAACT [TGCAC] the ligation selection enrichment was 0.235 ± 0.059. Work on GAGACCGCAACTGAAAAGTTGTGGTGCATATAGTGAGTCGCTGCCTGCAAAGACACAACT [TGCAT] yielded a ligation selection enrichment of 3.27 ± 0.44. GAGACCGCAACTGAAAAGTTGTGGAGCCTATAGTGAGTCGCTGCCTGCAAAGACACAACT [AGCCT] gave a ligation selection enrichment of 0.307 ± 0.093. Variant GAGACCGCAACTGAAAAGTTGTGGAGCCCATAGTGAGTCGCTGCCTGCAAAGACACAACT [AGCCC] has a ligation selection enrichment of 0.167 ± 0.05. GAGACCGCAACTGAAAAGTTGTGGAGCCAATAGTGAGTCGCTGCCTGCAAAGACACAACT [AGCCA] showed a ligation selection enrichment of 0.161 ± 0.018. With GAGACCGCAACTGAAAAGTTGTGGAGCCGATAGTGAGTCGCTGCCTGCAAAGACACAACT [AGCCG] the ligation selection enrichment was 0.709 ± 0.025.
